Source: patent publication US20060257397A1

Assays:
murine CD1a (mouse) = test: flow cytometry on mouse thymocytes, K-S statistics
murine CD1d (mouse) = murine CD1d (mouse) (UniProt P11609); test: flow cytometry on mouse thymocytes, K-S statistics
murine CD1d (mouse), sequence (P11609 22-336): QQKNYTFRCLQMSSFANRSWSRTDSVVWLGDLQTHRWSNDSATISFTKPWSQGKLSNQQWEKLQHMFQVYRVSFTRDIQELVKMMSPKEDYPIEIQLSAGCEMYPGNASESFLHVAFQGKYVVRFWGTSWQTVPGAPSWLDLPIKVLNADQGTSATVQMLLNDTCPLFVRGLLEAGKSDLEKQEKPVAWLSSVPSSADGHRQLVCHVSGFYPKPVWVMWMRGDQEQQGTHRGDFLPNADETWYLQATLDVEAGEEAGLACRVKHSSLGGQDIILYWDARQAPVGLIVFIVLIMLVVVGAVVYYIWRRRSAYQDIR

## Positive control (mouse anti-human CD1a-FITC) (antibody)
Murine CD1a (mouse)
  D-value: 0.03
Murine CD1d (mouse)
  D-value: 0.03
